{"source": "a protein production outcome set (Wang et al. 2014)", "test": "label from the status in PepcDB records", "data": [{"sequence": "MNLDKVNKYIKDFEKTIKKPKINFDKSKFYVGVDLGTANIVITILDKDGKPVAGVTQRSRVVRDGIVVDFMEAIEIVRKLKENLEKKLGIEITEGYTAIPPGVEQGSVRAIVNVIESAGIDVLKVVDEPTAASYVLGITDGVVVDLGGGTTGISILEKGKVIFVADEPTGGTHMTLVLAGSYGIDFETAEDIKTDKKKEKEVFVQITPVLQKMAAIVKKYIKDYKVKDVFLVGGACSFDGSESIFERELGLNIYKPYMPVYITPLGIALAGMKSLEHHHHHH", "values": [{"measurement": "protein production", "result": "not failed"}]}, {"sequence": "MNLEHHSNHYQPTCSIEALQARAKLYQTIRTFFAERGVLEVETPIISQAGVTDVHLASVKALRHIEGKERTQYLQTSPEFAMKRLLASGSGPIYQLCKVFRDDEHGRKHNSEFTMLEWYRPEFDLKDLMHETADLLETCLKQRFDEIRPMILSYKHAFQDRLEINPLQATLKQLKDTADRVGLNLDLGNDRLAYIDLLFSHIVEPSLGFDTPVFLTDFPPEMASLAKVRIDEDGEEVAARFEVYIEGLELANAYDELLDANILRARFEADNLERKLQGLAEMPLDENLLAALPHMPACAGIALGVDRLLMIATRQLKIEQVIAFPAAIA", "values": [{"measurement": "protein production", "result": "failed"}]}, {"sequence": "MNLEPPKAEIRSATRVMGGPVTPRKGPPKFKQRQTRQFKSKPPKKGVQGFGDDIPGMEGLGTDITVICPWEAFNHLELHELAQYGII", "values": [{"measurement": "protein production", "result": "not failed"}]}, {"sequence": "MNLESITVVLPTRNEAGNIGAFLASLPQAVHLIVVDASEDETPDIIQRERPARTQVLRRRSTITQARQLGAEAALTDWLLFTDADIVFPDGYFDALERVMDAAVVYGPKLSRDRFAAYYRWFGYGQQCSHWLGIPAATGSNLLVRKDALIAVGGFDPALVCNEDSELVWRIKRAGYRIRFEPSLPVYARDHRRLDSGLWRKTCHSVFRCALLYWDLMPARWRGADWGYWSPQQSGRAPGVSRVELEHHHHHH", "values": [{"measurement": "protein production", "result": "failed"}]}, {"sequence": "MNLGQWIGLIALILSLYILWQIKEVLLLMFAAVVLATTLNRLAKRFQRSGMKRGWAVMLAVAIFFAVVVGFFWLIVPPFAEQFNELTYRVPQGFERFNAWINELRTRIPAQLVPYIPDLNSLIQQAQPFINRVLGSSFAIVSGSLEVVLKVLLVLVLTGMLLADPIAYRKVFVRLFPSFYRRRVDGILDQCEVSLEGWVTGAVIAMGVVGLMSVVGLSILGVKAALALGVLAGFLNLIPNLGPTLSVVPAMAIALLDSPWKVVAVLILYFIIQQAESNFITPIVMAQQVSLLPAVTLISQLFFVTFFGFLGLFLALPLTVVAKIWVQEVLIKDVLDEWGHDHSQESELVMVSHYSEGDDHWSDDKQANKPTDDTVSQED", "values": [{"measurement": "protein production", "result": "failed"}]}, {"sequence": "MNLHSRQDEGPIPSGNPYALSLSMSAILAPFKKIYDLIDGFVLIMLTAIGIALIAPEIGTGDGPLRLGVVTNLGVALVFFLHGAALSRDKLVAGAKHWRLHVFVQSFTYIVFPIVGVLLMLSLRNTLPPELLLGVFYLCALPSTVSSSVAMTSMARGNVPGAIFNATISGLIGMALTPLLMGLVISASGASMPLGRALMGVALQLLLPFALGQAARPLIGNWLAKKKQITNKIDRGVIVLIVYSSFCDATAAGLWHQYHWQTIGAVMGIAAVLLFVILGTTTFTARRLGFSVEDEITAVFCGSKKSLANGIPMAKILFAGHPALGLLVLPLMVYHQLQLIVCSVIAARYANRDDVETREAVRA", "values": [{"measurement": "protein production", "result": "failed"}]}, {"sequence": "MNLINMSNFTSGRRLLRFAVVADSHLNPVNAGNTSPWQTNHLANPRNEVVVAAINRIAPAFTVHVGDVVHPLPHSTDYDGAADFATTLYRGLQAPFYIAPGNHDIGDKHLPGNPAACISADSCGKYEQHFGAQWQAFTEGNVCFIIINACLLGSGLPQEDAQWQFLQSRLAEEKAAGRRLFLFTHYPPFVTAPDEENHYDNIDHGPRRRLLELTASAGVEALFAGHVHTFFLNRHAGMWSYALPSSTNFRQDYAELFRVEPGEELGRNDLGKFGFFVVDIHEHGHIARFVRTYGSTDPAQGEEIALQVEGDVREHAAGTVAADFRHDWARVEALPYNPPLDAFVRKRVRNDYYILNLWDAGMRGVRLPIHDIADEQAFERVRLLGELGHRCLVFGTAVPDAHLLERLASLGPALEGYEWIGPDSAIAAHAAGQFARRGIRLFVAPVMQPPSSHSQGQYDHNMTSGIALGELDHLARFRPQRADASAPGVVVRIAGDEPVLESVRQAVEQAASHGVAIALHINLANRKSALVNDDDQAQAARVAEAAIAKAAYPDVPMTLDTFMDIDRGYFARHGLVDRRNNPRPAATVLRRLSERLRGHAVRIGAITREPAQSTVRIALGDQTLDVRIGRDISF", "values": [{"measurement": "protein production", "result": "failed"}]}, {"sequence": "MNLKDLLAHRENLMDSAKRARSAITDDMDPADAAQAVENVKSIISEIESTDEAIAARRGVSDVTQKLKGLTITERGTENDSAASRSLGEHFVKAAGDRLKNQAAGAHIEYSVPEYQVKEDAHSSPKDLVEGWGTFYQR", "values": [{"measurement": "protein production", "result": "not failed"}]}, {"sequence": "MNLKQAFIDNNSIRLGLSADTWQEAVRLAVQPLIDSKAVTSAYYDAIIASTEKYGPYYVLMPGMAMPHAEAGLGVNRNAFALITLTKPVTFSDGKEVSVLLTLAATDPSIHTTVAIPQIVALFELDNAIERLVACQSPKEVLEMVEESKDSPYLEGMDLNA", "values": [{"measurement": "protein production", "result": "not failed"}]}, {"sequence": "MNLLIKINPVTRIIALMVLTTPLLLSLDVMSAAIALVATIILAPFAGVTWKMLLKRGWMLFLMAPVAALSMALYGRPDGKEYFSFLLIHVTDNSLALAAAIGLRVLAIGLPVVVLIARIDPTDLGDGLAQLLKLPERFVIGAVAGSRLMTLFREDWYSMSRARRARGIADQGKIKHFFTMTFGLLVLSLRRGSKLATAMEARGFGRTTGRTWARESTVGARDLVLILVCAAISAIALTVSIQTGFFKFLGT", "values": [{"measurement": "protein production", "result": "failed"}]}, {"sequence": "MNLLVTSSLGVLLHLVVLCQADDHSELLVNTKSGKVMGTRVPVLSSHISAFLGIPFAEPPVGNMRFRRPEPKKPWSGVWNASTYPNNCQQYVDEQFPGFSGSEMWNPNREMSEDCLYLNIWVPSPRPKSTTVMVWIYGGGFYSGSSTLDVYNGKYLAYTEEVVLVSLSYRVGAFGFLALHGSQEAPGNVGLLDQRMALQWVHDNIQFFGGDPKTVTIFGESAGGASVGMHILSPGSRDLFRRAILQSGSPNCPWASVSVAEGRRRAVELGRNLNCNLNSDEELIHCLREKKPQELIDVEWNVLPFDSIFRFSFVPVIDGEFFPTSLESMLNSGNFKKTQILLGVNKDEGSFFLLYGAPGFSKDSESKISREDFMSGVKLSVPHANDLGLDAVTLQYTDWMDDNNGIKNRDGLDDIVGDHNVICPLMHFVNKYTKFGNGTYLYFFNHRASNLVWPEWMGVIHGYEIEFVFGLPLVKELNYTAEEEALSRRIMHYWATFAKTGNPNEPHSQESKWPLFTTKEQKFIDLNTEPMKVHQRLRVQMCVFWNQFLPKLLNATACDGELSSSGTSSSKGIIFYVLFSILYLIF", "values": [{"measurement": "protein production", "result": "not failed"}]}, {"sequence": "MNLPKKVRLVEVGPRDGLQNEKQPIEVADKIRLVDDLSAAGLDYIEVGSFVSPKWVPQMAGSAEVFAGIRQRPGVTYAALAPNLKGFEAALESGVKEVAVFAAASEAFSQRNINCSIKDSLERFVPVLEAARQHQVRVRGYISCVLGCPYDGDVDPRQVAWVARELQQMGCYEVSLGDTIGVGTAGATRRLIEAVASEVPRERLAGHFHDTYGQALANIYASLLEGIAVFDSSVAGLGGCPYAKGATGNVASEDVLYLLNGLEIHTGVDMHALVDAGQRICAVLGKSNGSRAAKALLAKA", "values": [{"measurement": "protein production", "result": "not failed"}]}, {"sequence": "MNLPPNPVIARGRGRGRKPNNVEANRGFAPSLGQKSDPSHSEGNQASGGNGGGGDAQVGPSIEKSSLSAVQMHKSEGDPRGSVRGRRLITDLVYSRPPGMTSKKGVVGTHITVQANYFKVLKRPNWTIYQYRVDFTPDVEATRLRRSFLY", "values": [{"measurement": "protein production", "result": "failed"}]}, {"sequence": "MNLQNWKLSEYVCAVENLSYTEFFRIIEYANDAGIPVNFVTNGTLITEEFVKKLSELNIGSVQVSLDGSKPEIMDRLRGNGIFHRAINSIKRLIDYGINTSVAFCATRINIRDFPNVVELASKLGVFEVRSMYFVPETEAHIKLAPSESQYKELLQWIYDN", "values": [{"measurement": "protein production", "result": "failed"}]}, {"sequence": "MNLVETAQAIKTGKVSLGIELGSTRIKAVLITDDFNTIASGSYVWENQFVDGTWTYALEDVWTGIQQSYTQLAADVRSKYHMSLKHINAIGISAMMHGYLAFDQQAKLLVPFRTWRNNITGQAADELTELFDFNIPQRWSIAHLYQAILNNEAHVKQVDFITTLAGYVTWKLSGEKVLGIGDASGVFPIDETTDTYNQTMLTKFSQLDKVKPYSWDIRHILPRVLPAGAIAGKLTAAGASLLDQSGTLDAGSVIAPPEGDAGTGMVGTNSVRKRTGNISVGTSAFSMNVLDKPLSKVYRDIDIVMTPDGSPVAMVHVNNCSSDINAWATIFHEFAARLGMELKPDRLYETLFLESTRADADAGGLANYSYQSGENITKIQAGRPLFVRTPNSKFSLPNFMLTQLYAAFAPLQLGMDILVNEEHVQTDVMIAQGGLFRTPVIGQQVLANALNIPITVMSTAGEGGPWGMAVLANFACRQTAMNLEDFLDQEVFKEPESMTLSPEPERVAGYREFIQRYQAGLPVEAAAGQAIKYLEHHHHHH", "values": [{"measurement": "protein production", "result": "not failed"}]}, {"sequence": "MNLVQAFLLSFTAFFAIMNPFANLPMFVSLTADNNRKEVDAIARLAFIVATVIVALFALLGNYIFSIFGINLSALRIMGGIILGLIGYHMIQGNVSPIQHDPKQSVKDSINSNNTDVAISPLAMPVLAGPGTIATTMNLSSSTNPFIVISAFVVLSVITYFIFIYGEQIMAKLGNNIMNVITKLMGLILATIGVRMLIMGVQVAFHW", "values": [{"measurement": "protein production", "result": "failed"}]}, {"sequence": "MNLVQDKVTIITGGTRGIGFAAAKIFIDNGAKVSIFGETQEEVDTALAQLKELYPEEEVLGFAPDLTSRDAVMAAVGQVAQKYGRLDVMINNAGITSNNVFSRVSEEEFKHIMDINVTGVFNGAWCAYQCMKDAKKGVIINTASVTGIFGSLSGVGYPASKASVIGLTHGLGREIIRKNIRVVGVAPGVVNTDMTNGNPPEIMEGYLKALPMKRMLEPEEIANVYLFLASDLASGITATTVSVDGAYRP", "values": [{"measurement": "protein production", "result": "not failed"}]}, {"sequence": "MNMKKIFKRTSLLLATALIGVTATVQAQKSPQDMDRFIDALMRRMTVEEKIGQLNLPVTGEITTGQAKSSDVAKKIEQGLVGGLFNLKGVAKIRDVQKLAVENSRLGIPLLFGMDVIHGYETIFPIPLGLSCTWDMAAIEQSARIAATEASADGISWTFSPMVDISRDPRWGRVSEGSGEDPFLGGAIARAMVLGYQGKDPDDQLKRNDEIMACVKHFALYGAGEAGRDYNTVDMSRNRMFNEYMYPYEAAVRAGVGSAMASFNEVDGVPATANHWLMTDVLRKQWGFNGFVVTDFTGISEMVEHGIGNLQTVSTRALNAGVDMDMVSEGFVGTLKKSLTEGKITMKTLDAACRRILEAKYKLGLFDDPYKYCDLSRPARDIFTREHRAAARRIAAESFVLLKNEPFEGQGKKSSRPVLPLEKQGTVAVIGPLGNTRSNMPGTWSVAARLDDYPSLYEGLKEMTASRVNITYAKGSNLISDAAYEERATLFGRSLNRDNRTDKKLLDEALKVASGADVIVAALGESSEMSGESSSRTDLGIPDVQRTLLEALLKTGKPVVLTLFTGRPLTLTWEQEHVPAILNVWFGGSEAAYAIGDVLFGDVNPSGKLTMTFPKNVGQIPLFYNHKNTGRPLAEGKWFEKFRSNYLDVDNEPLYPFGYGLSYTTFRYSDIALSTPVMGQNGSTTAVVTVTNTGKRDGAEVVQLYIRDLVGSITRPVRELKGFEKVFLKAGESKTVSFKITPELLRFYDYDLNHVAEPGDFDVMIGGSSQAEKTARLTLK", "values": [{"measurement": "protein production", "result": "failed"}]}, {"sequence": "MNMYRVLLIILGWISVVLATLGVVLPLLPTTPFLLLAAWCFARSSPRFHNWLLHRSWFGSYLRHWQQHRALPPGAKWKAVTMILLTFALSLWLVKLVWVRILLLVILTILLTFMLRLPVVDPEQQTQGADPKR", "values": [{"measurement": "protein production", "result": "failed"}]}, {"sequence": "MNNIAAIVVTYNRKKLLKKCIKGLKEQTEKADIIIIDNMSTDGTLEMLQPLINSNEIIYHSTGKNIGGAGGFYEGIKLAYEMGYKYFWLMDDDCIPTSSALEKLMNVVNEKKNFGFLVSKALWKDGEVCKMNIPKIKLTKQVNDFSKKVIQIKMGTFVSFLTSREVVEKVGLPIKEFFIWGDDLEYSQRISQKFPSYLVTNSLVYHETKLNEGSNIALDSVDRLKRYKLAYRNEVVLFKEMGLQGQMYQYFRLVLHCGRILFKSKDHKKERLNIIFQGTRAGYNFHPVIKNIK", "values": [{"measurement": "protein production", "result": "failed"}]}]}
